Measurements taken from patent publication US20250066745A1, “MUTANTS AND USE THEREOF” (BGI SHENZHEN, priority 2021, published 2025).

Experiments:
Assay type in all cases: biochemical
Design in all cases: key to Activity of mutant relative to wild-type Gaussia luciferase without the signal peptide: ratio of mutant luminescence intensity to wild-type Gaussia luciferase
[1] = Luminescence activity assay of purified Gaussia luciferase mutants on coelenterazine; conditions: Substrate CTZ (Table 16)
In short: (§1)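 Readout: luminescence intensity, as ratio to signal-peptide-free wild-type enzyme. Enzyme 1 μg/mL, substrate 100 μM stock, 10 μL + 90 μL; buffer 50 mM Tris-HCl pH 8.0, 100 mM NaCl, 0.1% Tween-20.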

[2] = Luminescence activity assay of purified Gaussia luciferase mutants on fluoro-coelenterazine; conditions: Substrate f-CTZ (Table 16)
Protocol: In this Example, the protein concentration was determined with a BCA quantitative kit (Thermo Scientific™ Pierce™ BCA Protein Assay Kit) accurately. The purified luciferase obtained in Example 5 was diluted with diluent (50 mM Tris-HCl, pH 8.0, 100 mM NaCl, 0.1% (v/v) Tween-20) to 1 μg/mL. The diluted luciferase, taken for 10 μL, was moved into a black 96-well plate, then added with 90 μL of the substrates coelenterazine, fluoro-coelenterazine or coelenterazine derivative ZS2 (purchased from Biolab) which was diluted into 100 μM with the same diluent, and the luminescence intensity of the plate was read with a self-luminescence module of a microplate reader. The mutation site of the mutant, the measured luminescence intensity, the ratio of luminescence intensities of the advantageous mutants to the wild-type Gaussia luciferase without the signal peptide having the sequence shown in SEQ ID NO: 3 are shown in Table 15. The results of catalytic activity assay of the advantageous mutants relative to the wild-type Gaussia luciferase without the signal peptide having the sequence shown in SEQ ID NO: 3 on substrate coelenterazine are shown in FIG. 6. […] The results of catalytic activity assay of the advantageous mutants relative to the wild-type Gaussia luciferase without the signal peptide having the sequence shown in SEQ ID NO: 3 on substrate fluoro-coelenterazine are shown in FIG. 7.
The new mutant library constructed in Example 7 was screened and tested for substrate specificity. Expression and purification schemes were the same as that in Example 5, and the activity assay scheme was the same as that in Example 6. The respective catalytic activities of combinatorial mutants on coelenterazine, fluoro-coelenterazine or coelenterazine derivative ZS2, and coelenterazine derivative ZS26 (purchased from BIOLAB) were assayed, and comparisons among the substrate specificities of the combinatorial mutants were based on the ratios of catalytic activities on two corresponding substrates.

[3] = Luminescence activity assay of purified Gaussia luciferase mutants on coelenterazine derivative ZS2; conditions: Substrate ZS2 (Table 16)
In short: as §1

Row | Molecule | Activity of mutant relative to wild-type Gaussia luciferase without the signal peptide [1] | Activity of mutant relative to wild-type Gaussia luciferase without the signal peptide [2] | Activity of mutant relative to wild-type Gaussia luciferase without the signal peptide [3]
1 | F26R N27Y V29E A30G A32D S33R A36G T37M L40P: Gaussia luciferase mutant (protein, SIGNAL (1)..(17), Gaussia luciferase mutant) MGVKVLFALICIAVAEAKPTENNEDRYIEGVDRNFGMTDPDADRGKLPGKKLPLEVLKEMEANARKAGCTRGCLICLSHIKCTPKMKKFIPGRCHTYEGDKESAQGGIGEAIVDIPEIPGFKDLEPMEQFIAQVDLCVDCTTGCLKGLANVQCSDLLKKWLPQRCATFASKIQGQVDKIKGAGGD | 0.152 | 0.172 | 0.147
2 | F26R V29E A30G V31L A36D T37E L40S K159: Gaussia luciferase mutant (protein) MGVKVLFALICIAVAEAKPTENNEDRNIEGLASNFDETDSDADRGKLPGKKLPLEVLKEMEANARKAGCTRGCLICLSHIKCTPKMKKFIPGRCHTYEGDKESAQGGIGEAIVDIPEIPGFKDLEPMEQFIAQVDLCVDCTTGCLKGLANVQCSDLLKKWLPQRCATFASKIQGQVDKIKGAGGD | 0.000 | 0.009 | 0.001
3 | F26S N27Y V29C A32G S33E A36Q T37G L40T: Gaussia luciferase mutant (protein, SIGNAL (1)..(17), Gaussia luciferase mutant) MGVKVLFALICIAVAEAKPTENNEDSYICAVGENFQGTDTDADRGKLPGKKLPLEVLKEMEANARKAGCTRGCLICLSHIKCTPKMKKFIPGRCHTYEGDKESAQGGIGEAIVDIPEIPGFKDLEPMEQFIAQVDLCVDCTTGCLKGLANVQCSDLLKKWLPQRCATFASKIQGQVDKIKGAGGD | 0.119 | 0.143 | 0.126
4 | F26Y N27Y V29A A30G S33V A36V T37S L40G: Gaussia luciferase mutant (protein, SIGNAL (1)..(17), Gaussia luciferase mutant) MGVKVLFALICIAVAEAKPTENNEDYYIAGVAVNFVSTDGDADRGKLPGKKLPLEVLKEMEANARKAGCTRGCLICLSHIKCTPKMKKFIPGRCHTYEGDKESAQGGIGEAIVDIPEIPGFKDLEPMEQFIAQVDLCVDCTTGCLKGLANVQCSDLLKKWLPQRCATFASKIQGQVDKIKGAGGD | 0.219 | 0.192 | 0.177
5 | F26T N27D V29P A30G V31I A32G S33I A36I T37L L40I: Gaussia luciferase mutant (protein, SIGNAL (1)..(17), Gaussia luciferase mutant) MGVKVLFALICIAVAEAKPTENNEDTDIPGIGINFILTDIDADRGKLPGKKLPLEVLKEMEANARKAGCTRGCLICLSHIKCTPKMKKFIPGRCHTYEGDKESAQGGIGEAIVDIPEIPGFKDLEPMEQFIAQVDLCVDCTTGCLKGLANVQCSDLLKKWLPQRCATFASKIQGQVDKIKGAGGD | 0.231 | 0.210 | 0.224
6 | F26V N27Y V29N A30D V31D D32L S33R A36R T37W L40Y K180R: Gaussia luciferase mutant (protein, SIGNAL (1)..(17), Gaussia luciferase mutant) MGVKVLFALICIAVAEAKPTENNEDVYINDDLRNFRWTDYDADRGKLPGKKLPLEVLKEMEANARKAGCTRGCLICLSHIKCTPKMKKFIPGRCHTYEGDKESAQGGIGEAIVDIPEIPGFKDLEPMEQFIAQVDLCVDCTTGCLKGLANVQCSDLLKKWLPQRCATFASKIQGQVDKIRGAGGD | 0.072 | 0.065 | 0.063
7 | A17V H79K P84A E102D S103T E110P L124M: Gaussia luciferase mutant (protein, SIGNAL (1)..(17), Gaussia luciferase mutant) MGVKVLFALICIAVAEVKPTENNEDFNIVAVASNFATTDLDADRGKLPGKKLPLEVLKEMEANARKAGCTRGCLICLSKIKCTAKMKKFIPGRCHTYEGDKDTAQGGIGPAIVDIPEIPGFKDMEPMEQFIAQVDLCVDCTTGCLKGLANVQCSDLLKKWLPQRCATFASKIQGQVDKIKGAGGD | 0.198 | 0.763 | 0.082

Second part, the molecule after the results:

Row | Activity of mutant relative to wild-type Gaussia luciferase without the signal peptide [1] | Activity of mutant relative to wild-type Gaussia luciferase without the signal peptide [2] | Activity of mutant relative to wild-type Gaussia luciferase without the signal peptide [3] | Molecule
8 | 0.138 | 0.615 | 0.116 | A30G V31I A32V S33G A36N T37D L40R: Gaussia luciferase mutant (protein, SIGNAL (1)..(17), Gaussia luciferase mutant) MGVKVLFALICIAVAEAKPTENNEDFNIVGIVGNFNDTDRDADRGKLPGKKLPLEVLKEMEANARKAGCTRGCLICLSHIKCTPKMKKFIPGRCHTYEGDKESAQGGIGEAIVDIPEIPGFKDLEPMEQFIAQVDLCVDCTTGCLKGLANVQCSDLLKKWLPQRCATFASKIQGQVDKIKGAGGD
9 | 1.921 | 13.108 | 0.064 | H79K P84L S103T A104G E110A: Gaussia luciferase mutant (protein, SIGNAL (1)..(17), Gaussia luciferase mutant) MGVKVLFALICIAVAEAKPTENNEDFNIVAVASNFATTDLDADRGKLPGKKLPLEVLKEMEANARKAGCTRGCLICLSKIKCTLKMKKFIPGRCHTYEGDKETGQGGIGAAIVDIPEIPGFKDLEPMEQFIAQVDLCVDCTTGCLKGLANVQCSDLLKKWLPQRCATFASKIQGQVDKIKGAGGD
10 | 0.000 | 0.007 | 0.001 | H79K P84A E102S S103I A104G E110P L124M: Gaussia luciferase mutant (protein, SIGNAL (1)..(17), Gaussia luciferase mutant) MGVKVLFALICIAVAEAKPTENNEDFNIVAVASNFATTDLDADRGKLPGKKLPLEVLKEMEANARKAGCTRGCLICLSKIKCTAKMKKFIPGRCHTYEGDKSIGQGGIGPAIVDIPEIPGFKDMEPMEQFIAQVDLCVDCTTGCLKGLANVQCSDLLKKWLPQRCATFASKIQGQVDKIKGAGGD
11 | 0.750 | 0.479 | 0.452 | H79K P84K E102K S103I V138E: Gaussia luciferase mutant (protein, SIGNAL (1)..(17), Gaussia luciferase mutant) MGVKVLFALICIAVAEAKPTENNEDFNIVAVASNFATTDLDADRGKLPGKKLPLEVLKEMEANARKAGCTRGCLICLSKIKCTKKMKKFIPGRCHTYEGDKKIAQGGIGEAIVDIPEIPGFKDLEPMEQFIAQVDLCEDCTTGCLKGLANVQCSDLLKKWLPQRCATFASKIQGQVDKIKGAGGD
12 | 0.094 | 0.936 | 0.068 | H79K P84L V138D: Gaussia luciferase mutant (protein, SIGNAL (1)..(17), Gaussia luciferase mutant) MGVKVLFALICIAVAEAKPTENNEDFNIVAVASNFATTDLDADRGKLPGKKLPLEVLKEMEANARKAGCTRGCLICLSKIKCTLKMKKFIPGRCHTYEGDKESAQGGIGEAIVDIPEIPGFKDLEPMEQFIAQVDLCDDCTTGCLKGLANVQCSDLLKKWLPQRCATFASKIQGQVDKIKGAGGD
